Experimental data reported in patent publication US20120141480A1.

Assays:
[1] = molecular target: dog factor D (in dog serum) (dog); assay: cell-based or functional assay; details: scale: times less effective than on human factor D
[2] = molecular target: human factor D (purified from human serum) (human) (UniProt P00746); assay: cell-based or functional assay
Sequence of UniProt P00746 (P00746 26-253 N180D): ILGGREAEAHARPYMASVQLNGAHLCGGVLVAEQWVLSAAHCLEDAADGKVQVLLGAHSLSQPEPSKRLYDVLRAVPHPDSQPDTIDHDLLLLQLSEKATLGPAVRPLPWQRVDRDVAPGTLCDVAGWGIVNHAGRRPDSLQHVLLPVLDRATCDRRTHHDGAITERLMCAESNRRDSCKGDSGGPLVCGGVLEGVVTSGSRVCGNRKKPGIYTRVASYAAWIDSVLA

In the case of MAb 166-32 (antibody), the neutralization of dog factor D in hemolytic assays, against human factor D [1] is reported as over 10, the alternative pathway hemolytic activity of plasma from an extracorporeal circuit with human whole blood (molar ratio (MAb:factor D)) [2] is reported as 1.5 and the inhibition of factor D dependent hemolysis of unsensitized rabbit RBCs (factor D depleted human serum reconstituted with purified factor D) [2] is reported as 0.3 µg/mL. The molar ratio for inhibition of factor D dependent hemolysis (molar ratio (MAb 166-32 to factor D)) [2] was 0.5.
